Results on 27 molecules are retold here after article PMC10786891, “Massively parallel profiling of RNA-targeting CRISPR-Cas13d”.

Sequences and labels used below:
T1: EsCas13d, nuclease-dead (Eubacterium siraeum, UniProt B0MS50, R295A;H300A;R849A;H854A)
T1 sequence: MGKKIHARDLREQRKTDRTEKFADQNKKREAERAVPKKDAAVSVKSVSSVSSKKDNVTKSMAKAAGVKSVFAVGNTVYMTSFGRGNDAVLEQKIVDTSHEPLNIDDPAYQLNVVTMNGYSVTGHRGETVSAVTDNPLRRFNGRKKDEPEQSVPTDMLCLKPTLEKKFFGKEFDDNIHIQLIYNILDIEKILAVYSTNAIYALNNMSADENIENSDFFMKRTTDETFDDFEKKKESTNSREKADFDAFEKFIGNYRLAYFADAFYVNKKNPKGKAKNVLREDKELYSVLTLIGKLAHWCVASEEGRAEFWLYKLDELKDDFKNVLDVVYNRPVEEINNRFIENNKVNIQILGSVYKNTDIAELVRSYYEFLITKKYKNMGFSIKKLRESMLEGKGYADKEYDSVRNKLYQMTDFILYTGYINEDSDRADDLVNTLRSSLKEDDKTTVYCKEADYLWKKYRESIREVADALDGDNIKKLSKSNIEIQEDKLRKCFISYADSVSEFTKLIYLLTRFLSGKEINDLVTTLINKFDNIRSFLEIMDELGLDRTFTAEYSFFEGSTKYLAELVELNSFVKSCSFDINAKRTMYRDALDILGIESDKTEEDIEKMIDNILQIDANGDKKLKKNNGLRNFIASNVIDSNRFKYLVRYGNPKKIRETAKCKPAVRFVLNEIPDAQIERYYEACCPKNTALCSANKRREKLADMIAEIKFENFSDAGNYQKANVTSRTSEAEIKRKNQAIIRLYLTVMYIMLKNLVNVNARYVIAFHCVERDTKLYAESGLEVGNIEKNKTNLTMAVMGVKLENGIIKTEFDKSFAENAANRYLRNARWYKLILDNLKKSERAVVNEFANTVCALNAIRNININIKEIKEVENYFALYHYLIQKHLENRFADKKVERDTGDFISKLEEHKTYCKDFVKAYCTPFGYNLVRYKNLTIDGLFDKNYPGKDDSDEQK

B1: target 1 U8G,G12A (mixed)
RNA 1: CACCCGUGCAAAAAUGCAGGGGUCUAAAACUGAGCGGAUAACCUCUCUAUGG
RNA 2: GGGAAUGGAUCCACAUCUACGAAUUCGUACCAUAGAGAGAUUAGCCGCUCACCGAGAUCGGAAGAGCACACGU
B2: target 1 insC 3' of 17,insA 3' of 6 (mixed)
RNA 1: CACCCGUGCAAAAAUGCAGGGGUCUAAAACUGAGCGGAUAACCUCUCUAUGG
RNA 2: GGGAAUGGAUCCACAUCUACGAAUUCGUACCAUAGCAGAGGUUAUCCAGCUCACCGAGAUCGGAAGAGCACACGU
B3: target 1 insG 3' of 22,insG 3' of 8 (mixed)
RNA 1: CACCCGUGCAAAAAUGCAGGGGUCUAAAACUGAGCGGAUAACCUCUCUAUGG
RNA 2: GGGAAUGGAUCCACAUCUACGAAUUCGUACGCAUAGAGAGGUUAUGCCGCUCACCGAGAUCGGAAGAGCACACGU
B4: target 1 A1U,G5C (mixed)
RNA 1: CACCCGUGCAAAAAUGCAGGGGUCUAAAACUGAGCGGAUAACCUCUCUAUGG
RNA 2: GGGAAUGGAUCCACAUCUACGAAUUCGUACCAUAGAGAGGUUAUCCCCUCUCCGAGAUCGGAAGAGCACACGU
B5: target 1 C7A,A14C (mixed)
RNA 1: CACCCGUGCAAAAAUGCAGGGGUCUAAAACUGAGCGGAUAACCUCUCUAUGG
RNA 2: GGGAAUGGAUCCACAUCUACGAAUUCGUACCAUAGAGCGGUUAUACGCUCACCGAGAUCGGAAGAGCACACGU
B6: target 1 A9C,A14G (mixed)
RNA 1: CACCCGUGCAAAAAUGCAGGGGUCUAAAACUGAGCGGAUAACCUCUCUAUGG
RNA 2: GGGAAUGGAUCCACAUCUACGAAUUCGUACCAUAGAGGGGUUCUCCGCUCACCGAGAUCGGAAGAGCACACGU
B7: target 1 A1C,G5C (mixed)
RNA 1: CACCCGUGCAAAAAUGCAGGGGUCUAAAACUGAGCGGAUAACCUCUCUAUGG
RNA 2: GGGAAUGGAUCCACAUCUACGAAUUCGUACCAUAGAGAGGUUAUCCCCUCCCCGAGAUCGGAAGAGCACACGU
B8: target 1 A9G,A14G (mixed)
RNA 1: CACCCGUGCAAAAAUGCAGGGGUCUAAAACUGAGCGGAUAACCUCUCUAUGG
RNA 2: GGGAAUGGAUCCACAUCUACGAAUUCGUACCAUAGAGGGGUUGUCCGCUCACCGAGAUCGGAAGAGCACACGU
B9: target 1 U19A,C21A (mixed)
RNA 1: CACCCGUGCAAAAAUGCAGGGGUCUAAAACUGAGCGGAUAACCUCUCUAUGG
RNA 2: GGGAAUGGAUCCACAUCUACGAAUUCGUACAAAAGAGAGGUUAUCCGCUCACCGAGAUCGGAAGAGCACACGU
B10: target 1 insA 3' of 22,insC 3' of 8 (mixed)
RNA 1: CACCCGUGCAAAAAUGCAGGGGUCUAAAACUGAGCGGAUAACCUCUCUAUGG
RNA 2: GGGAAUGGAUCCACAUCUACGAAUUCGUACACAUAGAGAGGUUAUCCCGCUCACCGAGAUCGGAAGAGCACACGU
B11: target 1 complement block 3-7 (mixed)
RNA 1: CACCCGUGCAAAAAUGCAGGGGUCUAAAACUGAGCGGAUAACCUCUCUAUGG
RNA 2: GGGAAUGGAUCCACAUCUACGAAUUCGUACCAUAGAGAGGUUAUGGCGACACCGAGAUCGGAAGAGCACACGU
B12: target 1 U3A,C21A (mixed)
RNA 1: CACCCGUGCAAAAAUGCAGGGGUCUAAAACUGAGCGGAUAACCUCUCUAUGG
RNA 2: GGGAAUGGAUCCACAUCUACGAAUUCGUACAAUAGAGAGGUUAUCCGCACACCGAGAUCGGAAGAGCACACGU
B13: target 1 C4U,G13C (mixed)
RNA 1: CACCCGUGCAAAAAUGCAGGGGUCUAAAACUGAGCGGAUAACCUCUCUAUGG
RNA 2: GGGAAUGGAUCCACAUCUACGAAUUCGUACCAUAGAGACGUUAUCCGUUCACCGAGAUCGGAAGAGCACACGU
B14: target 1 complement block 1-6 (mixed)
RNA 1: CACCCGUGCAAAAAUGCAGGGGUCUAAAACUGAGCGGAUAACCUCUCUAUGG
RNA 2: GGGAAUGGAUCCACAUCUACGAAUUCGUACCAUAGAGAGGUUAUCGCGAGUCCGAGAUCGGAAGAGCACACGU
B15: target 1 insC 3' of 12,insA 3' of 12 (mixed)
RNA 1: CACCCGUGCAAAAAUGCAGGGGUCUAAAACUGAGCGGAUAACCUCUCUAUGG
RNA 2: GGGAAUGGAUCCACAUCUACGAAUUCGUACCAUAGAGAGGCAUUAUCCGCUCACCGAGAUCGGAAGAGCACACGU
B16: target 1 insA 3' of 21,insU 3' of 12 (mixed)
RNA 1: CACCCGUGCAAAAAUGCAGGGGUCUAAAACUGAGCGGAUAACCUCUCUAUGG
RNA 2: GGGAAUGGAUCCACAUCUACGAAUUCGUACCAAUAGAGAGGUUUAUCCGCUCACCGAGAUCGGAAGAGCACACGU
B17: target 1 U19C,C21A (mixed)
RNA 1: CACCCGUGCAAAAAUGCAGGGGUCUAAAACUGAGCGGAUAACCUCUCUAUGG
RNA 2: GGGAAUGGAUCCACAUCUACGAAUUCGUACAACAGAGAGGUUAUCCGCUCACCGAGAUCGGAAGAGCACACGU
B18: target 1 C2U,C7U (mixed)
RNA 1: CACCCGUGCAAAAAUGCAGGGGUCUAAAACUGAGCGGAUAACCUCUCUAUGG
RNA 2: GGGAAUGGAUCCACAUCUACGAAUUCGUACCAUAGAGAGGUUAUUCGCUUACCGAGAUCGGAAGAGCACACGU
B19: target 1 insU 3' of 21,insU 3' of 6 (mixed)
RNA 1: CACCCGUGCAAAAAUGCAGGGGUCUAAAACUGAGCGGAUAACCUCUCUAUGG
RNA 2: GGGAAUGGAUCCACAUCUACGAAUUCGUACCUAUAGAGAGGUUAUCCUGCUCACCGAGAUCGGAAGAGCACACGU
B20: target 1 G12U,A20C (mixed)
RNA 1: CACCCGUGCAAAAAUGCAGGGGUCUAAAACUGAGCGGAUAACCUCUCUAUGG
RNA 2: GGGAAUGGAUCCACAUCUACGAAUUCGUACCCUAGAGAGUUUAUCCGCUCACCGAGAUCGGAAGAGCACACGU
B21: target 1 U3A,G17C (mixed)
RNA 1: CACCCGUGCAAAAAUGCAGGGGUCUAAAACUGAGCGGAUAACCUCUCUAUGG
RNA 2: GGGAAUGGAUCCACAUCUACGAAUUCGUACCAUACAGAGGUUAUCCGCACACCGAGAUCGGAAGAGCACACGU
B22: target 1 C7A,C21A (mixed)
RNA 1: CACCCGUGCAAAAAUGCAGGGGUCUAAAACUGAGCGGAUAACCUCUCUAUGG
RNA 2: GGGAAUGGAUCCACAUCUACGAAUUCGUACAAUAGAGAGGUUAUACGCUCACCGAGAUCGGAAGAGCACACGU
B23: target 1 insA 3' of 21,insU 3' of 2 (mixed)
RNA 1: CACCCGUGCAAAAAUGCAGGGGUCUAAAACUGAGCGGAUAACCUCUCUAUGG
RNA 2: GGGAAUGGAUCCACAUCUACGAAUUCGUACCAAUAGAGAGGUUAUCCGCUCUACCGAGAUCGGAAGAGCACACGU
B24: target 1 A1G,G5C (mixed)
RNA 1: CACCCGUGCAAAAAUGCAGGGGUCUAAAACUGAGCGGAUAACCUCUCUAUGG
RNA 2: GGGAAUGGAUCCACAUCUACGAAUUCGUACCAUAGAGAGGUUAUCCCCUCGCCGAGAUCGGAAGAGCACACGU
B25: target 1 C7U,A9G (mixed)
RNA 1: CACCCGUGCAAAAAUGCAGGGGUCUAAAACUGAGCGGAUAACCUCUCUAUGG
RNA 2: GGGAAUGGAUCCACAUCUACGAAUUCGUACCAUAGAGAGGUUGUUCGCUCACCGAGAUCGGAAGAGCACACGU
B26: target 1 G5C (mixed)
RNA 1: CACCCGUGCAAAAAUGCAGGGGUCUAAAACUGAGCGGAUAACCUCUCUAUGG
RNA 2: GGGAAUGGAUCCACAUCUACGAAUUCGUACCAUAGAGAGGUUAUCCCCUCACCGAGAUCGGAAGAGCACACGU
B27: target 1 C2G,G5U (mixed)
RNA 1: CACCCGUGCAAAAAUGCAGGGGUCUAAAACUGAGCGGAUAACCUCUCUAUGG
RNA 2: GGGAAUGGAUCCACAUCUACGAAUUCGUACCAUAGAGAGGUUAUCCUCUGACCGAGAUCGGAAGAGCACACGU

In this data set the target is T1, EsCas13d, nuclease-dead. In words: crRNA (strand 1, pre-loaded); Mg2+; 40 mM Tris-HCl pH 7.5, 150 mM NaCl, 6 mM MgCl2, 1 mM DTT, 0.1% Tween-20, 0.2 mg/ml BSA; 25 C; 10 min per concentration, then washed. The note with it: tags: His6-TwinStrep-SUMO cleaved; N-terminal SNAP kept (SNAP-Surface 488); label: 3' end held by stalled T7 RNA polymerase.
On to B1, for which the Kd (commonly the constant that tells how readily two partners part at equilibrium) came out at 12.9 ± 1.4 nM.

Consider B2, for which binding was characterised by a dissociation constant (Kd) of 44 ± 5 nM.

Turning to B3, the Kd amounted to 68 ± 7 nM.

B4: binding was characterised by a dissociation constant (Kd) of 8.9 ± 0.5 nM. Against the preceding molecule, the Kd is about 7.6-fold lower.

B5: the Kd worked out at 34 ± 4 nM.

Turning to B6, the Kd came out at 29.5 ± 2.4 nM.

For the molecule B7, the affinity, expressed as Kd, was 9 ± 0.7 nM. This Kd is about 3.3-fold lower than that of the molecule before.

In turn, B8 returned a Kd of 14.4 ± 0.7 nM.

B9 had a Kd of 46 ± 5 nM.

In the case of B10, binding was put at a Kd of 22.3 ± 2 nM.

B11 displayed a Kd of 12.9 ± 0.8 nM.

Regarding B12, the Kd was ~90 nM.

Consider B13, for which binding was put at a Kd of 50 ± 10 nM.

With B14, the Kd turned out to be 6.14 ± 0.25 nM.

B15 showed a Kd of 14.7 ± 1.5 nM.

In turn, B16 gave a Kd of 16.4 ± 0.8 nM.

Take B17: the Kd was determined as 37 ± 5 nM.

For B18, binding was put at a Kd of 6.5 ± 0.27 nM.

Molecule B19 displayed a Kd of 31.4 ± 1.6 nM.

The molecule B20 showed a Kd of 74 ± 32 nM. This Kd is about 2.4-fold higher than that of the molecule before.

Take B21: binding was characterised by a dissociation constant (Kd) of 44 ± 4 nM.

Regarding B22, the Kd amounted to 36 ± 4 nM.

Molecule B23 showed a dissociation constant (Kd) of 17.9 ± 1 nM.

For B24, binding was put at a Kd of 10 ± 0.5 nM.

B25 returned a Kd of 15.7 ± 1.1 nM. Compared with the last molecule, the Kd is about 1.6-fold higher.

In turn, B26 had a Kd of 9.6 ± 0.4 nM.

With B27, the Kd turned out to be 22.1 ± 1.4 nM.
